Molecular target: GST-KLF2 (UniProt Q60843 1-354)
Assay: EMSA

GST-KLF2, sequence (Q60843 whole entry): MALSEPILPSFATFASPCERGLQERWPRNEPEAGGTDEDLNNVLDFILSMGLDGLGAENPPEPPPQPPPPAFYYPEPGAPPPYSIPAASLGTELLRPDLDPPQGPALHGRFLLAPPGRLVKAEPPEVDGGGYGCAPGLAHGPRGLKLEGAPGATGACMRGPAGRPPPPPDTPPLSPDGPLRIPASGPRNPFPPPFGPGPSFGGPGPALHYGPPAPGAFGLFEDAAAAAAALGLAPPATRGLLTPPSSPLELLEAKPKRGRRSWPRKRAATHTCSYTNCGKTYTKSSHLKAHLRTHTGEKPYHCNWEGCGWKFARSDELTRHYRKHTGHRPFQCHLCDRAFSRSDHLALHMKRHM

B1: eNOS promoter KLF site (-644 to -652) probe (dsDNA)
DNA 1: GTCATGGGGGTGTGGGGGTTCCAGGAAAT
DNA 2: ATTTCCTGGAACCCCCACACCCCCATGAC
B1: binds.

— paper PMC2211816
